Data on six sequences can be found in US6750197B1, “Activators of endothelial nitric oxide synthase” (Rensselaer Polytechnic Institute, priority 1996, dated 2004).

Assay [1] has as its target NNOS (Rattus norvegicus, UniProt P29476). As to the kind of experiment: CAM binding: radiolabeled CAM trapped on a membrane by NNOS adhesion. The settings on record: no peptide: 774 ± 40. As for the experimental part:
(§1) JX series polypeptides are approximately 30-mers derived from ENOS and NNOS inhibitory polypeptides. B058 series are shorter (6-mers to 15-mers) peptides derived from flanking loops or from shorter segments of inhibitory polypeptides. CAM binding data represents counts from radiolabeled CAM trapped on a membrane by NNOS adhesion. INOS activity was assayed by measuring oxidation of ferrous myoglobin by product NO.

The target of assay [2] is INOS (Rattus norvegicus, UniProt Q06518). As to the kind of experiment: INOS activity by oxidation of ferrous myoglobin by product NO. It counts as biochemical. On the set-up: unit not given here. The settings on record: for INOS Activity 0.1 mg/ml: peptide 0.1 mg/ml, no peptide: 14.9 ± .56. The method, then: as §1

Sequence of NNOS (P29476 whole entry): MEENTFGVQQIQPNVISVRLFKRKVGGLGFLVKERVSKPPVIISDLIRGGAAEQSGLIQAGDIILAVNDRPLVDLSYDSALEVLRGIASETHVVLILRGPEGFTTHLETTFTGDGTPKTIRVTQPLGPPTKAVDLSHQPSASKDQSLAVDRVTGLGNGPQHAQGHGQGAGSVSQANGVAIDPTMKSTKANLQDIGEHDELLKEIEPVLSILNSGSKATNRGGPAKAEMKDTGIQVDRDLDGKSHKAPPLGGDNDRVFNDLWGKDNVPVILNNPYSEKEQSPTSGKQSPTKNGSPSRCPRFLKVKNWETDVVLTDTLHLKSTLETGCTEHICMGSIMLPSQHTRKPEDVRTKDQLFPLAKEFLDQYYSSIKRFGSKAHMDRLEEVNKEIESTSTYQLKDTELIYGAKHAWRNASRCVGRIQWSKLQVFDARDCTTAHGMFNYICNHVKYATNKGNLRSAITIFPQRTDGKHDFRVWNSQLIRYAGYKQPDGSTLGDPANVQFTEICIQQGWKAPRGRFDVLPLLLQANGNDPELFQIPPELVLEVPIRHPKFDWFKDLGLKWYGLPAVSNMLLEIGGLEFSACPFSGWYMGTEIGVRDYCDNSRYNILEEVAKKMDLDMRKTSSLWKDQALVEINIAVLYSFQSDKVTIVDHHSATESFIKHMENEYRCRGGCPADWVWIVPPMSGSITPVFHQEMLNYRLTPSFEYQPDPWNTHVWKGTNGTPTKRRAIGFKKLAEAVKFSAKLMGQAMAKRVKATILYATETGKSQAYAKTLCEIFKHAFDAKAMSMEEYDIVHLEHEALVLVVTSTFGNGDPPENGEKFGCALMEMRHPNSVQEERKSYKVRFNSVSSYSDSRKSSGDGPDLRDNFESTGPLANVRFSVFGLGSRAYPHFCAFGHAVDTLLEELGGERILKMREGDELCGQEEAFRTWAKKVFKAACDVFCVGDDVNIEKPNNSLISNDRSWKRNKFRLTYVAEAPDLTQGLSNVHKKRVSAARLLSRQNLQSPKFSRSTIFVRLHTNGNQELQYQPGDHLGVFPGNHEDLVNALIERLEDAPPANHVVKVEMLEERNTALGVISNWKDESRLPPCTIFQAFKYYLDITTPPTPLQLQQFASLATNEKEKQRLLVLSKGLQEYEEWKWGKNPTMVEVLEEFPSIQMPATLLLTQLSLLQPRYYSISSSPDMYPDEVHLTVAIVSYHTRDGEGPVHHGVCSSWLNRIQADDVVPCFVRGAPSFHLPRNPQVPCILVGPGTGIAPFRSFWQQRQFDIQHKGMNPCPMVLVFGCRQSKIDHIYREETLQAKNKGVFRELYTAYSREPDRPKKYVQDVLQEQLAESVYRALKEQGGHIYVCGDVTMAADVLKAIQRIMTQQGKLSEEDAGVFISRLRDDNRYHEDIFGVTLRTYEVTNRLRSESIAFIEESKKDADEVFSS

Consider AVDTLLEELGGERT [BO58-02, 22], for which the “NNOS CAM Binding” value in assay [1] is 953 ± 80 counts. The “INOS Activity 0.1 mg/ml” value in assay [2] is given as 15.1 ± .03.
For AVDTRLEELGGERT [BO58-01, 35], the “NNOS CAM Binding” value in assay [1] came out at 986 ± 58 counts. Further, the “INOS Activity 0.1 mg/ml” value in assay [2] was 15.0 ± .73.
As for DDVVSLEHET [BO58-04, 24], the “NNOS CAM Binding” value in assay [1] is 903 ± 57 counts. In addition, the “INOS Activity 0.1 mg/ml” value in assay [2] is listed as 15.8 ± .73. Moreover, in assay [2] (peptide 0.3 mg/ml, no peptide: 12.3 ± .19), the “INOS activity 0.3 mg/ml” value is listed as 14.9 ± .56.
On to DIDQKLSHLGASQT [BO58-03, 23], for which the “NNOS CAM Binding” value in assay [1] came out at 863 ± 19 counts. Also, the “INOS Activity 0.1 mg/ml” value in assay [2] was 14.4 ± .27.
The matching figures for DIVHLEHES [BO58-05, 25]: 952 ± 52 counts and 14.6 ± .03.
In the case of KASTLEEEQ [BO58-06, 26], the “NNOS CAM Binding” value in assay [1] was 951 ± 100 counts. In assay [2], the “INOS Activity 0.1 mg/ml” value is 15.3 ± .32.
